These results are taken from patent US20250197488A1 (MABWELL SHANGHAI BIOSCIENCE, published 2025).

The target of assay [1] is T1, human IL-11 (AAH12506.1, Pro22-Leu199) (human, UniProt P20809 22-199).
T1 construct: The range Pro22-Leu199 counts on AAH12506.1; The Octet runs say only 'human IL-11'; also called hIL-11
T1 chain: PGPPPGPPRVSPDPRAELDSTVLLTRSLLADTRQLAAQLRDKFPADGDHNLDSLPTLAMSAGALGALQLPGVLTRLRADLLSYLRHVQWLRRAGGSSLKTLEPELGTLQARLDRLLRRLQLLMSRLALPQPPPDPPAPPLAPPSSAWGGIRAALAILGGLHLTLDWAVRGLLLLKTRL
Nature of the assay: BLI (Octet), antibody captured, human IL-11 in solution. The method, boiled down: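 Bio-layer interferometry on a Fortebio Octet QKe System. Antibodies (hybridoma supernatant or purified, diluted in HBS-EP+ buffer) were captured on anti-mouse IgG Fc (AMC) or anti-human Fc (AHC) biosensors. Human IL-11 at 300 nM in HBS-EP+ buffer flowed over, with 300 seconds association and 300 seconds dissociation. Blank-subtracted curves were fitted to a 1:1 Langmuir binding model to derive kon, koff and Kd.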
In general terms: Biolayer interferometry detects binding as a change in optical thickness at a sensor tip.

Assay [2] addresses T2, IL-11 (Cat. 12225-HNCE, Sino Biological Inc.) (UniProt P20809 22-199, limits assumed).
T2 sequence (looked up): T1 chain with L154H
Nature of the assay: cell-based or functional assay.

The Kd is the free concentration of one partner at which half of the binding sites on the other are occupied at equilibrium, for simple one-to-one binding. In general, koff refers to the rate constant with which the complex falls apart. High values mean a short-lived complex, low ones a long-lived complex. The kon is a measure of how fast the partners come together. Read a low kon as slower complex formation.

Residue numbers refer to the chain shown, from its start.

B1: hz18A10-VHm19 + hz18A10-VLm19 (antibody, human IgG1, kappa, V domains shown)
VH: EVQLVQSGAEVKKPGASVKVSCKASGYTFTHYNMDWVRQAPGQGLEWMGTIYPGNADTSYNQKFKGRVTMTRDTSTSTVYMELSSLRSEDTAVYYCARGDLYALDYWGQGTLVTVSS
VL: DIQMTQSPSSLSASVGDRVTITCKASQSVYRDVAWYQQKPGKAPKLLIYSASNRYTGVPSRFSGSGSGTDFTFTISSLQPEDIATYYCQHDYSSPYTFGQGTKLEIKR
notes: named hz18A10m19; also called hz18A10m19
In assay [1], B1 registered a Kd of 0.101 nM, a dissociation rate constant (koff) of 0.0001 s⁻¹ and an on-rate constant (kon) of 993000 M⁻¹ s⁻¹. Further, in assay [2], the “Blocking activity (IC50), STAT3-luc reporter” value (shortened to “Blocking activity (IC50)”) turned out to be 0.13 µg/mL.

B2: hz18A10-VH + hz18A10-VLm9 (antibody, V domains shown)
VH: B1 VH with H31T, A56G
VL: DIQMTQSPSSLSASVGDRVTITCKASQSVYSDVAWYQQKPGKAPKLLIYSASNRYTGVPSRFSGSGSGTDFTFTISSLQPEDIATYYCQHDYSSPYTFGQGTKLEIK
notes: Constant regions not restated for this antibody
In assay [1], B2 gave a Kd of 0.54 nM, a koff of 0.000463 s⁻¹ and an on-rate (kon) of 859000 M⁻¹ s⁻¹. Moreover, the “Blocking activity (IC50)” value in assay [2] came to 1.25 µg/mL.

B3: hz18A10-VH + hz18A10-VLm17 (antibody, V domains shown)
VH: B1 VH with H31T, A56G
VL: B2 VL with S31R, S50R
notes: as for B2
In assay [1], B3 registered an equilibrium dissociation constant (Kd) of 0.45 nM, a koff of 0.000326 s⁻¹ and an on-rate constant (kon) of 725000 M⁻¹ s⁻¹. In assay [2], the “Blocking activity (IC50)” value stood at 3.47 µg/mL.

B4: hz18A10-VHm1 + hz18A10-VLm15 (antibody, V domains shown)
VH: B1 VH with H31T, A56G, Y102H, A103F
VL: B2 VL with Y30S, S31N, S50R, N53S
notes: as for B2
In assay [1], B4 had a Kd of 0.585 nM, a dissociation rate constant (koff) of 0.000265 s⁻¹ and a kon of 453000 M⁻¹ s⁻¹. Moreover, the “Blocking activity (IC50)” value in assay [2] amounted to 1.88 µg/mL.

B5: hz18A10-VH + hz18A10-VLm4 (antibody, V domains shown)
VH: B1 VH with H31T, A56G
VL: B2 VL with S28F, Y30S, S31N
notes: as for B2
As to B5, in assay [1], the dissociation constant Kd came to 3.12 nM, the koff turned out to be 0.00237 s⁻¹ and the kon stood at 760000 M⁻¹ s⁻¹. Further, the “Blocking activity (IC50)” value in assay [2] was determined as 16.4 µg/mL.

B6: hz18A10-VH + hz18A10-VLm16 (antibody, V domains shown)
VH: B1 VH with H31T, A56G
VL: B2 VL with Y30S, S31N, S50R, N53R, T56P
notes: as for B2
In assay [1], B6 had a dissociation constant (Kd) of 1.97 nM, an off-rate constant (koff) of 0.000938 s⁻¹ and a kon of 699000 M⁻¹ s⁻¹. For the same molecule, the “Blocking activity (IC50)” value in assay [2] was 9.89 µg/mL.

B7: hz18A10-VHm2 + hz18A10-VL (antibody, V domains shown)
VH: B1 VH with H31T, A56G, Y102H, A103Y
VL: B2 VL with Y30S, S31N
notes: as for B2
In assay [1], B7 yielded a Kd of 2.29 nM, a dissociation rate constant (koff) of 0.00158 s⁻¹ and a kon of 692000 M⁻¹ s⁻¹. The “Blocking activity (IC50)” value in assay [2] is 11.6 µg/mL.

B8: hz18A10-VH + hz18A10-VLm11 (antibody, V domains shown)
VH: B1 VH with H31T, A56G
VL: B2 VL with Y30S, S31N, S50R
notes: as for B2
Turning to B8, in assay [1], binding was characterised by a dissociation constant (Kd) of 1.8 nM, the koff was 0.00134 s⁻¹ and the kon is 747000 M⁻¹ s⁻¹. Moreover, in assay [2], the “Blocking activity (IC50)” value stood at 4.07 µg/mL.

B9: hz18A10-VHm2 + hz18A10-VLm9 (antibody, V domains shown)
VH: B1 VH with H31T, A56G, Y102H, A103Y
VL: B2 VL
notes: as for B2
In assay [1], B9 gave a Kd of 2.33 nM, a koff of 0.000941 s⁻¹ and a kon of 404000 M⁻¹ s⁻¹. In addition, the “Blocking activity (IC50)” value in assay [2] is 13.9 µg/mL.

B10: hz18A10-VH + hz18A10-VLm1 (antibody, V domains shown)
VH: B1 VH with H31T, A56G
VL: B2 VL with Q27K, Y30S, S31N
notes: as for B2
For B10, in assay [1], binding was characterised by a dissociation constant (Kd) of 4.61 nM, the dissociation rate constant (koff) stood at 0.00331 s⁻¹ and the kon turned out to be 718000 M⁻¹ s⁻¹. In assay [2], the “Blocking activity (IC50)” value stood at 19.3 µg/mL.

B11: hz18A10-VH + hz18A10-VLm6 (antibody, V domains shown)
VH: B1 VH with H31T, A56G
VL: B2 VL with Y30F, S31H
notes: as for B2
For the molecule B11, in assay [1], the affinity, expressed as Kd, was 0.877 nM; the koff is 0.000794 s⁻¹; the kon was found to be 905000 M⁻¹ s⁻¹. Further, the “Blocking activity (IC50)” value in assay [2] stood at 2.6 µg/mL.

B12: hz18A10-VH + hz18A10-VLm5 (antibody, V domains shown)
VH: B1 VH with H31T, A56G
VL: B2 VL with Y30S, S31N, V33I
notes: as for B2
Consider B12, for which, in assay [1], binding was characterised by a dissociation constant (Kd) of 4.09 nM, the koff came out at 0.00281 s⁻¹ and the association rate constant (kon) came to 688000 M⁻¹ s⁻¹. In addition, the “Blocking activity (IC50)” value in assay [2] came to 18.1 µg/mL.

B13: hz18A10-VHm1 + hz18A10-VL (antibody, V domains shown)
VH: B1 VH with H31T, A56G, Y102H, A103F
VL: B2 VL with Y30S, S31N
notes: as for B2
In the case of B13, in assay [1], the dissociation constant (Kd) worked out at 2.17 nM, the koff was found to be 0.00139 s⁻¹ and the kon stood at 640000 M⁻¹ s⁻¹. The “Blocking activity (IC50)” value in assay [2] is 10.9 µg/mL.

B14: hz18A10-VH + hz18A10-VLm3 (antibody, V domains shown)
VH: B1 VH with H31T, A56G
VL: B2 VL with Q27H, Y30S, S31N
notes: as for B2
Regarding B14, in assay [1], binding was put at a Kd of 3.94 nM, the koff turned out to be 0.00277 s⁻¹ and the kon was determined as 704000 M⁻¹ s⁻¹. Also, the “Blocking activity (IC50)” value in assay [2] amounted to 15.2 µg/mL.

B15: hz18A10-VHm2 + hz18A10-VLm11 (antibody, V domains shown)
VH: B1 VH with H31T, A56G, Y102H, A103Y
VL: B2 VL with Y30S, S31N, S50R
notes: as for B2
In assay [1], B15 had a dissociation constant (Kd) of 1.01 nM, a koff of 0.000317 s⁻¹ and an on-rate constant (kon) of 314000 M⁻¹ s⁻¹. Also, the “Blocking activity (IC50)” value in assay [2] amounted to 9.46 µg/mL.

B16: hz18A10-VH + hz18A10-VLm18 (antibody, V domains shown)
VH: B1 VH with H31T, A56G
VL: B2 VL with S31R, S50R, N53S
notes: as for B2
In assay [1], B16 yielded a Kd of 0.419 nM, an off-rate (koff) of 0.0003 s⁻¹ and a kon of 716000 M⁻¹ s⁻¹. For the same molecule, the “Blocking activity (IC50)” value in assay [2] came to 4.38 µg/mL.

B17: hz18A10-VH + hz18A10-VLm12 (antibody, V domains shown)
VH: B1 VH with H31T, A56G
VL: B2 VL with Y30S, S31N, N53S
notes: as for B2
As to B17, in assay [1], the dissociation constant Kd worked out at 3.54 nM, the koff was found to be 0.00265 s⁻¹ and the on-rate (kon) came to 750000 M⁻¹ s⁻¹. In assay [2], the “Blocking activity (IC50)” value came out at 11.6 µg/mL.

B18: hz18A10-VHm1 + hz18A10-VLm14 (antibody, V domains shown)
VH: B1 VH with H31T, A56G, Y102H, A103F
VL: B2 VL with Y30S, S31N, S50R, N53R
notes: as for B2
With B18, in assay [1], the Kd turned out to be 1.03 nM, the koff came to 0.000341 s⁻¹ and the association rate constant (kon) is 330000 M⁻¹ s⁻¹. Further, the “Blocking activity (IC50)” value in assay [2] is 9.68 µg/mL.

B19: hz18A10-VH + hz18A10-VLm10 (antibody, V domains shown)
VH: B1 VH with H31T, A56G
VL: B2 VL with Y30S, S31N, V33L
notes: as for B2
In the case of B19, in assay [1], the equilibrium dissociation constant (Kd) came out at 4.06 nM, the koff came to 0.00295 s⁻¹ and the on-rate constant (kon) worked out at 727000 M⁻¹ s⁻¹. Further, the “Blocking activity (IC50)” value in assay [2] stood at 12.7 µg/mL.

B20: hz18A10-VHm1 + hz18A10-VLm11 (antibody, V domains shown)
VH: B1 VH with H31T, A56G, Y102H, A103F
VL: B2 VL with Y30S, S31N, S50R
notes: as for B2
B20: in assay [1], the equilibrium dissociation constant (Kd) stood at 0.825 nM, the dissociation rate constant (koff) came out at 0.000287 s⁻¹ and the kon amounted to 348000 M⁻¹ s⁻¹. The “Blocking activity (IC50)” value in assay [2] worked out at 7.4 µg/mL.

B21: hz18A10-VH + hz18A10-VLm13 (antibody, V domains shown)
VH: B1 VH with H31T, A56G
VL: B2 VL with Y30S, S31N, N53R
notes: as for B2
On to B21, for which, in assay [1], binding was put at a Kd of 3.99 nM, the off-rate constant (koff) was 0.00268 s⁻¹ and the kon was determined as 673000 M⁻¹ s⁻¹. For the same molecule, in assay [2], the “Blocking activity (IC50)” value stood at 14.2 µg/mL.

B22: hz18A10-VHm1 + hz18A10-VLm9 (antibody, V domains shown)
VH: B1 VH with H31T, A56G, Y102H, A103F
VL: B2 VL
notes: as for B2
In assay [1], B22 had a dissociation constant Kd of 2.01 nM, a koff of 0.000963 s⁻¹ and an on-rate (kon) of 479000 M⁻¹ s⁻¹. Moreover, the “Blocking activity (IC50)” value in assay [2] was 11.1 µg/mL.

B23: hz18A10-VHm1 + hz18A10-VLm7 (antibody, V domains shown)
VH: B1 VH with H31T, A56G, Y102H, A103F
VL: B2 VL with Y30F, S31R
notes: as for B2
Turning to B23, in assay [1], binding was put at a Kd of 2.4 nM, the dissociation rate constant (koff) was determined as 0.0013 s⁻¹ and the association rate constant (kon) amounted to 544000 M⁻¹ s⁻¹. Further, the “Blocking activity (IC50)” value in assay [2] came out at 13.1 µg/mL.

B24: hz18A10-VH + hz18A10-VLm2 (antibody, V domains shown)
VH: B1 VH with H31T, A56G
VL: B2 VL with Q27Y, Y30S, S31N
notes: as for B2
In assay [1], B24 gave a Kd of 2.3 nM, a koff of 0.00185 s⁻¹ and a kon of 806000 M⁻¹ s⁻¹. In assay [2], the “Blocking activity (IC50)” value was found to be 17.4 µg/mL.

B25: hz18A10-VH + hz18A10-VLm8 (antibody, V domains shown)
VH: B1 VH with H31T, A56G
VL: B2 VL with S31H
notes: as for B2
In assay [1], B25 came in with an equilibrium dissociation constant (Kd) of 0.803 nM, a koff of 0.000746 s⁻¹ and a kon of 929000 M⁻¹ s⁻¹. Further, in assay [2], the “Blocking activity (IC50)” value came to 3.12 µg/mL.
